Assays:
[1] = target: γ2-GABAA subunit fused with a superecliptic pHluorin (SEP) tag (UniProt P18508)
[2] = target: γ2-GABAA subunit fused with a superecliptic pHluorin (SEP) tag (UniProt P18508); remark: listed apart in the source
[3] = target: γ2-GABAA subunit fused with a superecliptic pHluorin (SEP) tag (UniProt P18508); remark: listed apart in the source
[4] = target: γ2-GABAA receptor (endogenous) (rat (endogenous in hippocampal neurons)) (UniProt P18508)

Substance	diffusion coefficient median of SEP-γ2-GABAARs at inhibitory synaptic sites with the disrupting peptide TATD5Ct (10 µM); control 1.81 10^−2 µm^2/s [1] [µm^2/s]	explored area of SEP-γ2-GABAARs at inhibitory synapses with the disrupting peptide TATD5Ct (10 µM); control 0.30 10^−2 [1] [µm^2/s]	immobile fraction (D < 0.005 µm^2/s) of SEP-γ2-GABAARs at inhibitory synapses, single nanoparticle tracking, after the disrupting peptide TATD5Ct (10 µM, 10 min); control 33% [1] [%]	diffusion coefficient median of extrasynaptic SEP-γ2-GABAARs after incubation with the disrupting peptide TATD5Ct (10 µM); control 4.11 10^−2 µm^2/s [2] [µm^2/s]	explored area of extrasynaptic SEP-γ2-GABAARs with the disrupting peptide TATD5Ct (10 µM); control 1.24 10^−2 µm^2 [2] [µm^2]	immobile fraction of extrasynaptic SEP-γ2-GABAARs with the disrupting peptide TATD5Ct (10 µM); control 25% [2] [%]	diffusion coefficient median of SEP-γ2-GABAARs at excitatory synapses with the disrupting peptide TATD5Ct (10 µM); control 3.15 10^−2 µm^2/s; no change (p = 0.13) [3] [µm^2/s]	explored area of SEP-γ2-GABAARs at excitatory synapses with the disrupting peptide TATD5Ct (10 µM); control 0.60 10^−2 µm^2; unchanged (p = 0.097) [3] [µm^2]	immobile fraction of SEP-γ2-GABAARs at excitatory synapses with the disrupting peptide TATD5Ct (10 µM); no change [3] [%]	diffusion coefficient median of extrasynaptic D5Rs (D5R–YFP) after incubation with the disrupting peptide TATD5Ct (10 µM); control 7.42 10^−2 µm^2/s [4] [µm^2/s]	explored area of extrasynaptic D5Rs (D5R–YFP) with the disrupting peptide TATD5Ct (10 µM); control 2.37 10^−2 µm^2 [4] [µm^2]	immobile fraction of extrasynaptic D5Rs (D5R–YFP, single nanoparticle tracking) with the disrupting peptide TATD5Ct (10 µM); not changed [4] [%]
dopamine D5 receptor (endogenous) (from UniProt P25115 1-475)	0.0578	0.0133	9	0.075	0.0245	17	0.0412	0.0073	20			
dopamine D5 receptor fused to the yellow fluorescent protein (YFP) (from UniProt P25115 1-475)										0.103	0.0345	15
